Experimental data published in patent publication US20200129634A1.
Non-standard residues stand in square brackets, D forms with d. No end group written: not given here.

Key:
human serum proteins = test: cell-based or functional assay
D39 = test: RP-HPLC temperature profiling 5-77 C, pH 2, self-association (dimerization/oligomerization) relative to random coil control RC
D88 (D34(A1K)) = test: RP-HPLC temperature profiling (0.25% B/min gradient), Mix 2, self-association relative to RC
D103 (D34(A1K)K26S) = test: as above
D37 [1] = test: RP-HPLC temperature profiling 5-77 C, pH 2, self-association (dimerization/oligomerization) relative to random coil control RC
D37 [2] = test: RP-HPLC temperature profiling (0.25% B/min gradient), control AMP, self-association relative to RC
[3] = target: D85 (D84K3OrnK7OrnK11OrnK18OrnK22OrnK26Orn); test: RP-HPLC temperature profiling (0.25% B/min gradient), Mix 1, self-association relative to RC
[4] = target: D106 (D88K3DprK7DprK14DprK15DprK22DprK26Dpr); test: RP-HPLC temperature profiling (0.25% B/min gradient), Mix 4, self-association relative to RC
[5] = target: D87 (D84K3ArgK7ArgK11ArgK18ArgK22ArgK26Arg); test: RP-HPLC temperature profiling (0.25% B/min gradient), Mix 1, self-association relative to RC
[6] = target: D105 (D84K3DprK7DprK11DprK18DprK22DprK26Dpr); test: RP-HPLC temperature profiling (0.25% B/min gradient), Mix 4, self-association relative to RC
[7] = target: D105 (D84K3DprK7DprK11DprK18DprK22DprK26Dpr); test: RP-HPLC temperature profiling (0.25% B/min gradient), Mix 1, self-association relative to RC
D33 (D37(A13K/A16K)) = test: RP-HPLC temperature profiling 5-77 C, pH 2, self-association (dimerization/oligomerization) relative to random coil control RC
D101 (D33(A1K)K26S) = test: RP-HPLC temperature profiling (0.25% B/min gradient), Mix 2, self-association relative to RC
D40 = test: RP-HPLC temperature profiling 5-77 C, pH 2, self-association (dimerization/oligomerization) relative to random coil control RC
D38 = test: as above

B1: D39 (peptide)
peptide: [dA][dL][dK][dS][dL][dL][dA][dT][dL][dS][dK][dA][dA][dK][dK][dA][dL][dK][dT][dL][dL][dA][dA][dL][dS][dK]-NH2
modifications: N-terminus assumed
SMILES: CC(C)C[C@@H](NC(=O)[C@@H](C)N)C(=O)N[C@H](CCCCN)C(=O)N[C@H](CO)C(=O)N[C@H](CC(C)C)C(=O)N[C@H](CC(C)C)C(=O)N[C@H](C)C(=O)N[C@@H](C(=O)N[C@H](CC(C)C)C(=O)N[C@H](CO)C(=O)N[C@H](CCCCN)C(=O)N[C@H](C)C(=O)N[C@H](C)C(=O)N[C@H](CCCCN)C(=O)N[C@H](CCCCN)C(=O)N[C@H](C)C(=O)N[C@H](CC(C)C)C(=O)N[C@H](CCCCN)C(=O)N[C@@H](C(=O)N[C@H](CC(C)C)C(=O)N[C@H](CC(C)C)C(=O)N[C@H](C)C(=O)N[C@H](C)C(=O)N[C@H](CC(C)C)C(=O)N[C@H](CO)C(=O)N[C@H](CCCCN)C(N)=O)[C@H](C)O)[C@H](C)O
- MIC against A. baumannii strain 649 in 25% human serum (no serum: 1.4) (human serum proteins): > 92.8 µM
- PA (self-association parameter) (D39): 18.5 min

B2: D88 (D34(A1K)) (peptide)
peptide: Ac-KLKSLLKTLSAAKKKKLATLLKALSK-NH2
modifications: not fully specified; printed as Ac-KL(Lys)SLL(Lys)TLSAAK(Lys)(Lys)KLATLL(Lys)ALS(Lys)-amide; also: D-enantiomeric residues, extent not given here
- PA (self-association parameter) (D88 (D34(A1K))): 6.9 min

Binder: Ac-KLKSLLKTLSAAKKKKLATLLKALSS-NH2 (not fully specified; also: D-enantiomeric residues, extent not given here) [D103 (D34(A1K)K26S)]
- PA (self-association parameter) (D103 (D34(A1K)K26S)): 7.2 min

B3: D37 (peptide)
peptide: [dA][dL][dK][dS][dL][dL][dK][dT][dL][dS][dK][dA][dA][dA][dA][dA][dL][dK][dT][dL][dL][dK][dA][dL][dS][dK]-NH2
modifications: N-terminus assumed
SMILES: CC(C)C[C@@H](NC(=O)[C@@H](C)N)C(=O)N[C@H](CCCCN)C(=O)N[C@H](CO)C(=O)N[C@H](CC(C)C)C(=O)N[C@H](CC(C)C)C(=O)N[C@H](CCCCN)C(=O)N[C@@H](C(=O)N[C@H](CC(C)C)C(=O)N[C@H](CO)C(=O)N[C@H](CCCCN)C(=O)N[C@H](C)C(=O)N[C@H](C)C(=O)N[C@H](C)C(=O)N[C@H](C)C(=O)N[C@H](C)C(=O)N[C@H](CC(C)C)C(=O)N[C@H](CCCCN)C(=O)N[C@@H](C(=O)N[C@H](CC(C)C)C(=O)N[C@H](CC(C)C)C(=O)N[C@H](CCCCN)C(=O)N[C@H](C)C(=O)N[C@H](CC(C)C)C(=O)N[C@H](CO)C(=O)N[C@H](CCCCN)C(N)=O)[C@H](C)O)[C@H](C)O
- MIC against A. baumannii strain 649 in 25% human serum (no serum: 2.9) (human serum proteins): > 92.8 µM
- PA (self-association parameter) (D37 [1]): 18.5 min
- PA (self-association parameter) (D37 [2]): 37 min

B4: D85 (D84K3OrnK7OrnK11OrnK18OrnK22OrnK26Orn) (peptide)
peptide: Ac-KLXSLLXTLSXAKAAKLXTLLXALSX-NH2
modifications: not fully specified (some residues); printed as Ac-KL(Orn)SLL(Orn)TLS(Orn)AKAAKL(Orn)TLL(Orn)ALS(Orn)-amide
- PA (self-association parameter) [3]: 2.9 min

B5: D106 (D88K3DprK7DprK14DprK15DprK22DprK26Dpr) (peptide)
peptide: Ac-KLXSLLXTLSAAKXXKLATLLXALSX-NH2
modifications: not fully specified (some residues); printed as Ac-KL(Dpr)SLL(Dpr)TLSAAK(Dpr)(Dpr)KLATLL(Dpr)ALs(Dpr)-amide
- PA (self-association parameter) [4]: 2.5 min

B6: D87 (D84K3ArgK7ArgK11ArgK18ArgK22ArgK26Arg) (peptide)
peptide: Ac-KLRSLLRTLSRAKAAKLRTLLRALSR-NH2
modifications: not fully specified; printed as Ac-KL(Arg)SLL(Arg)TLS(Arg)AKAAKL(Arg)TLL(Arg)ALs(Arg)-amide; also: D-enantiomeric residues, extent not given here
- PA (self-association parameter) [5]: 3.4 min

B7: D105 (D84K3DprK7DprK11DprK18DprK22DprK26Dpr) (peptide)
peptide: Ac-KLXSLLXTLSXAKAAKLXTLLXALSX-NH2
modifications: not fully specified (some residues); printed as Ac-KL(Dpr)SLL(Dpr)TLS(Dpr)AKAAKL(Dpr)TLL(Dpr)ALS(Dpr)-amide
- PA (self-association parameter) [6]: 2.8 min
- PA (self-association parameter) [7]: 2.8 min

B8: D33 (D37(A13K/A16K)) (peptide)
peptide: [dA][dL][dK][dS][dL][dL][dK][dT][dL][dS][dK][dA][dK][dA][dA][dK][dL][dK][dT][dL][dL][dK][dA][dL][dS][dK]-NH2
modifications: N-terminus assumed
SMILES: CC(C)C[C@@H](NC(=O)[C@@H](C)N)C(=O)N[C@H](CCCCN)C(=O)N[C@H](CO)C(=O)N[C@H](CC(C)C)C(=O)N[C@H](CC(C)C)C(=O)N[C@H](CCCCN)C(=O)N[C@@H](C(=O)N[C@H](CC(C)C)C(=O)N[C@H](CO)C(=O)N[C@H](CCCCN)C(=O)N[C@H](C)C(=O)N[C@H](CCCCN)C(=O)N[C@H](C)C(=O)N[C@H](C)C(=O)N[C@H](CCCCN)C(=O)N[C@H](CC(C)C)C(=O)N[C@H](CCCCN)C(=O)N[C@@H](C(=O)N[C@H](CC(C)C)C(=O)N[C@H](CC(C)C)C(=O)N[C@H](CCCCN)C(=O)N[C@H](C)C(=O)N[C@H](CC(C)C)C(=O)N[C@H](CO)C(=O)N[C@H](CCCCN)C(N)=O)[C@H](C)O)[C@H](C)O
- MIC against A. baumannii strain 649 in 25% human serum (no serum: 0.1) (human serum proteins): 0.7 µM
- PA (self-association parameter) (D33 (D37(A13K/A16K))): 5.3 min

Binder: Ac-KLKSLLKTLSKAKAAKLKTLLKALSS-NH2 (not fully specified; also: D-enantiomeric residues, extent not given here) [D101 (D33(A1K)K26S)]
- PA (self-association parameter) (D101 (D33(A1K)K26S)): 7.2 min

B9: D40 (peptide)
peptide: [dA][dL][dA][dS][dL][dL][dK][dT][dL][dS][dK][dA][dA][dK][dK][dA][dL][dK][dT][dL][dL][dK][dA][dL][dS][dA]-NH2
modifications: N-terminus assumed
SMILES: CC(C)C[C@@H](NC(=O)[C@@H](C)N)C(=O)N[C@H](C)C(=O)N[C@H](CO)C(=O)N[C@H](CC(C)C)C(=O)N[C@H](CC(C)C)C(=O)N[C@H](CCCCN)C(=O)N[C@@H](C(=O)N[C@H](CC(C)C)C(=O)N[C@H](CO)C(=O)N[C@H](CCCCN)C(=O)N[C@H](C)C(=O)N[C@H](C)C(=O)N[C@H](CCCCN)C(=O)N[C@H](CCCCN)C(=O)N[C@H](C)C(=O)N[C@H](CC(C)C)C(=O)N[C@H](CCCCN)C(=O)N[C@@H](C(=O)N[C@H](CC(C)C)C(=O)N[C@H](CC(C)C)C(=O)N[C@H](CCCCN)C(=O)N[C@H](C)C(=O)N[C@H](CC(C)C)C(=O)N[C@H](CO)C(=O)N[C@H](C)C(N)=O)[C@H](C)O)[C@H](C)O
- MIC against A. baumannii strain 649 in 25% human serum (no serum: 2.9) (human serum proteins): > 92.8 µM
- PA (self-association parameter) (D40): 18.7 min

B10: D38 (peptide)
peptide: [dA][dL][dK][dS][dL][dL][dK][dT][dL][dS][dA][dA][dA][dK][dK][dA][dL][dA][dT][dL][dL][dK][dA][dL][dS][dK]-NH2
modifications: N-terminus assumed
SMILES: CC(C)C[C@@H](NC(=O)[C@@H](C)N)C(=O)N[C@H](CCCCN)C(=O)N[C@H](CO)C(=O)N[C@H](CC(C)C)C(=O)N[C@H](CC(C)C)C(=O)N[C@H](CCCCN)C(=O)N[C@@H](C(=O)N[C@H](CC(C)C)C(=O)N[C@H](CO)C(=O)N[C@H](C)C(=O)N[C@H](C)C(=O)N[C@H](C)C(=O)N[C@H](CCCCN)C(=O)N[C@H](CCCCN)C(=O)N[C@H](C)C(=O)N[C@H](CC(C)C)C(=O)N[C@H](C)C(=O)N[C@@H](C(=O)N[C@H](CC(C)C)C(=O)N[C@H](CC(C)C)C(=O)N[C@H](CCCCN)C(=O)N[C@H](C)C(=O)N[C@H](CC(C)C)C(=O)N[C@H](CO)C(=O)N[C@H](CCCCN)C(N)=O)[C@H](C)O)[C@H](C)O
- MIC against A. baumannii strain 649 in 25% human serum (no serum: 0.7) (human serum proteins): > 92.8 µM
- PA (self-association parameter) (D38): 19.5 min
